{
  "source": "paper PMC6498860",
  "about": "(Cell, 2019)",
  "binders": {"B1": {"name": "Dot1L(2-416) (domain or fragment)", "chain": "GEKLELRLKSPVGAEPAVYPWPLPVYDKHHDAAHEIIETIRWVCEEIPDLKLAMENYVLIDYDTKSFESMQRLCDKYNRAIDSIHQLWKGTTQPMKLNTRPSTGLLRHILQQVYNHSVTDPEKLNNYEPFSPEVYGETSFDLVAQMIDEIKMTDDDLFVDLGSGVGQVVLQVAAATNCKHHYGVEKADIPAKYAETMDREFRKWMKWYGKKHAEYTLERGDFLSEEWRERIANTSVIFVNNFAFGPEVDHQLKERFANMKEGGRIVSSKPFAPLNFRINSRNLSDIGTIMRVVELSPLKGSVSWTGKPVSYYLHTIDRTILENYFSSLKNPKLREEQEAARRRQQRESKSNAATPTKGPEGKVAGPADAPMDSGAEEEKAGAATVKKPSPSKARKKKLNKKGRKMAGRKRGRPKK"}},
  "biological_target": "histone H4 (Xenopus laevis, UniProt P62799 2-103)",
  "experiment": "cryo-EM structure",
  "data": [
    {"binder": "B1", "values": [
      {"measurement": "binding result", "value": "binds"}
    ]}
  ]
}
